One molecule from publication PMC5714209 can be followed below.

For this assay, the target named is APOBEC3G (human), Q9HC16. Nature of the assay: SEC. As to conditions: remark: other sources report otherwise.

B1: APOBEC3G, Q9HC16 1-384 (enzyme)
chain: MKPHFRNTVERMYRDTFSYNFYNRPILSRRNTVWLCYEVKTKGPSRPPLDAKIFRGQVYSELKYHPEMRFFHWFSKWRKLHRDQEYEVTWYISWSPCTKCTRDMATFLAEDPKVTLTIFVARLYYFWDPDYQEALRSLCQKRDGPRATMKIMNYDEFQHCWSKFVYSQRELFEPWNNLPKYYILLHIMLGEILRHSMDPPTFTFNFNNEPWVRGRHETYLCYEVERMHNDTWVLLNQRRGFLCNQAPHKHGFLEGRHAELCFLDVIPFWKLDLDQDYRVTCFTSWSPCFSCAQEMAKFISKNKHVSLCIFTARIYDDQGRCQEGLRTLAEAGAKISIMTYSEFKHCWDTFVDHQGCPFQPWDGLDEHSQDLSGRLRAILQNQEN
For orientation: stoichiometry N means the number of molecules, sites or subunits per partner or assembly. As to B1, the stoichiometry N came to 2.
